Results: publication PMC3402474 (PLoS ONE, 2012)
Residue numbers refer to the chain shown, from its start.

B1: Bmh1 (natural protein, S. cerevisiae, UniProt P29311 1-267, looked up)
chain: MSTSREDSVYLAKLAEQAERYEEMVENMKTVASSGQELSVEERNLLSVAYKNVIGARRASWRIVSSIEQKEESKEKSEHQVELICSYRSKIETELTKISDDILSVLDSHLIPSATTGESKVFYYKMKGDYHRYLAEFSSGDAREKATNASLEAYKTASEIATTELPPTHPIRLGLALNFSVFYYEIQNSPDKACHLAKQAFDDAIAELDTLSEESYKDSTLIMQLLRDNLTLWTSDMSESGQAEDQQQQQQHQQQQPPAAAEGEAPK
notes: also called yeast 14-3-3 protein Bmh1; recombinant Bmh1
B2: ammodytin L (natural protein)
chain: SVIEFGKMIQEETDKNPLTSYSFYGCHCGLGNKGKPKDATDRCCFVHSCCYAKLPDCSPKTNRYEYHRENGAIVCGSSTPCKKQICECDRAAAICFRENLKTYNKKYKVYLRFKCKGVSEKC
B3: ammodytoxin A (enzyme)
chain: SLLEFGMMILGETGKNPLTSYSFYGCYCGVGGKGTPKDATDRCCFVHDCCYGNLPDCSPKTDRYKYHRENGAIVCGKGTSCENRICECDRAAAICFRKNLKTYNYIYRNYPDFLCKKESEKC
B4: ammodytoxin B (enzyme)
chain: B3 chain with Y105H, R108M, N109Y
notes: also called AtxB
B5: ammodytoxin C (enzyme)
chain: B3 chain with F113I, K117E
notes: also called AtxC
B6: Bmh2 (natural protein, S. cerevisiae, UniProt P34730 1-273, looked up)
chain: MSQTREDSVYLAKLAEQAERYEEMVENMKAVASSGQELSVEERNLLSVAYKNVIGARRASWRIVSSIEQKEESKEKSEHQVELIRSYRSKIETELTKISDDILSVLDSHLIPSATTGESKVFYYKMKGDYHRYLAEFSSGDAREKATNSSLEAYKTASEIATTELPPTHPIRLGLALNFSVFYYEIQNSPDKACHLAKQAFDDAIAELDTLSEESYKDSTLIMQLLRDNLTLWTSDISESGQEDQQQQQQQQQQQQQQQQQAPAEQTQGEPTK
notes: also called yeast 14-3-3 protein Bmh2; recombinant Bmh2

What was measured:
[1] = target: the molecule itself; experiment: dynamic light scattering
[2] = target: B6; experiment: SPR; details: both partners purified
[3] = target: B1; experiment: SPR; details: both partners purified
[4] = target: B6; experiment: SPR; BiacoreX, 25°C; recombinant Bmh1 or Bmh2 in 50 mM Tris (pH 7.5), 150 mM NaCl, 0.1 mM CaCl2 immobilized to CM5 chips; 2 µM sPLA2 injected; dissociation monitored 180 s; responses corrected for surface density and molecular weights; details: both partners purified
[5] = target: B1; experiment: as above; details: both partners purified

Binder: B1
- stoichiometry N [1]: 2

Binder: B2
- binding result [2]: binds
- binding result [3]: binds

Binder: B3
- binding result [2]: binds
- binding result [3]: binds

Binder: B4
- binding result [4]: binds
- binding result [5]: binds

Binder: B5
- binding result [4]: binds
- binding result [5]: binds

Binder: B6
- stoichiometry N [1]: 2
